Paper PMC8956199, “The mismatched nucleotides encoded in vaccinia virus flip-and-flop hairpin telomeres serve an essential role in virion maturation”

Assays:
[1] = molecular target: T1, I1 telomere-binding protein (UniProt P16714 1-312); test: EMSA, competition; 700 ng poly d(IC), 0-300 ng unlabeled S hairpin; reference; details: protein: recombinant; tags: His6 (pET151/D-TOPO vector); label: 3' fill-in with Alexa Fluor 647-aha-dUTP (Results say Cy5-dUTP)
T1 sequence: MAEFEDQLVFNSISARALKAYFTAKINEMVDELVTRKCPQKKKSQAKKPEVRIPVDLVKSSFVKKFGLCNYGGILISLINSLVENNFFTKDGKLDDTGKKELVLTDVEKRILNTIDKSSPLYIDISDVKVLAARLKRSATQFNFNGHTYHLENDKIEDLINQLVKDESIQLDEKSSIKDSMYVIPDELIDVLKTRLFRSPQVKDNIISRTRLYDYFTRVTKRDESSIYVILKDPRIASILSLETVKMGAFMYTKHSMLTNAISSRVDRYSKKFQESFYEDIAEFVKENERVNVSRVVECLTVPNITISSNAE

[2] = molecular target: T1, I1 telomere-binding protein; test: EMSA, competition; 700 ng poly d(IC), 0-300 ng unlabeled S hairpin; behaved much like S; details: protein: recombinant; tags: His6 (pET151/D-TOPO vector); label: 3' fill-in with Alexa Fluor 647-aha-dUTP (Results say Cy5-dUTP)

B1: S hairpin (VACV WR telomere, wild type) (structured_DNA)
DNA: ACATTTTTTTCTAGACACTAAATAAAATATTTAAAATATAATATTAATGTACTAAAACTTATATATTATTAATTTATCTAACTAAAGTTAGTAAATTATATATATAATTTTATAATTAATTTAATTTTACTAATTTTATTTAGTGTCTAGAAAAAAA
modifications: 5' phosphate
binding result [1]: binds

B2: SΔ1–3 hairpin (structured_DNA)
DNA: ACATTTTTTTCTAGACACTAAATAAAATATTTAAAATATAATATTAATGTACTAAAATTATATATTAATTTACTAACTAAAGTTAGTAAATTAATATATAATTTTATAATTAATTTAATTTTACTAATTTTATTTAGTGTCTAGAAAAAAA
modifications: 5' phosphate
binding result [2]: binds
